Target: T1, recombinant wild-type C1q (human, UniProt P02745 23-245; P02746 28-253; P02747 29-245)
T1 construct: C1q A chain, human; C1q B chain, human; C1q C chain, human; Hexamer of A-B-C heterotrimers (18 chains); also called C1qWT; WT; source: purified from culture supernatant (IgG-ovalbumin aggregates, anti-FLAG M2 column); copies: 6 + 6 + 6
Assay: SPR; Biacore 3000, 25°C; C1q variants immobilised on CM5 chips by amine coupling; partners injected at 20 μl/min in 50 mM Tris-HCl, 150 mM NaCl, 2 mM CaCl2, 0.005% surfactant P20, pH 7.4; BSA reference surface; global fit to 1:1 Langmuir model; apparent KD = kd/ka
Conditions: both partners purified

T1 sequence (P02745 23-245, chain 1 of 3): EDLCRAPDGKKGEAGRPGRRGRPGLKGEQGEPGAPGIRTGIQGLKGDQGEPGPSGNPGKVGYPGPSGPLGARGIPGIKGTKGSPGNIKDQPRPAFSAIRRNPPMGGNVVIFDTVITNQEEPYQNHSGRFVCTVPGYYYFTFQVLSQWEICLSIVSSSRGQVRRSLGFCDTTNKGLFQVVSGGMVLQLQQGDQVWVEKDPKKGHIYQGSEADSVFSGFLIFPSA
T1 sequence (P02746 28-253, chain 2 of 3): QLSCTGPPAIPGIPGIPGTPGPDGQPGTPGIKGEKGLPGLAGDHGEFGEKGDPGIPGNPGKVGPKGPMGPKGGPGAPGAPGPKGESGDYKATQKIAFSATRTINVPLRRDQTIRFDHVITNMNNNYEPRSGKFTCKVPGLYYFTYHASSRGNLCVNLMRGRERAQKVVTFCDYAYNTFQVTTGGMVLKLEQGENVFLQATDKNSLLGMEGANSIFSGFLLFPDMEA
T1 sequence (P02747 29-245, chain 3 of 3): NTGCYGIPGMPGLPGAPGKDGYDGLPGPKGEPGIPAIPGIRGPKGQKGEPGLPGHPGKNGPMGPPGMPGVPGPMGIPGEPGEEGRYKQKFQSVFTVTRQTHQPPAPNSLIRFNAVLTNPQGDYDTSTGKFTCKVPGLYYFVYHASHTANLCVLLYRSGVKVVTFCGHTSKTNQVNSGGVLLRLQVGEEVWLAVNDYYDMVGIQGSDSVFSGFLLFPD

Kd: 5.04 nM | koff: 0.00234 s⁻¹ | kon: 463000 M⁻¹ s⁻¹
B1: recombinant human MASP-2 dimer (enzyme, UniProt O00187 16-686, looked up)
chain: TPLGPKWPEPVFGRLASPGFPGEYANDQERRWTLTAPPGYRLRLYFTHFDLELSHLCEYDFVKLSSGAKVLATLCGQESTDTERAPGKDTFYSLGSSLDITFRSDYSNEKPFTGFEAFYAAEDIDECQVAPGEAPTCDHHCHNHLGGFYCSCRAGYVLHRNKRTCSALCSGQVFTQRSGELSSPEYPRPYPKLSSCTYSISLEEGFSVILDFVESFDVETHPETLCPYDFLKIQTDREEHGPFCGKTLPHRIETKSNTVTITFVTDESGDHTGWKIHYTSTAQPCPYPMAPPNGHVSPVQAKYILKDSFSIFCETGYELLQGHLPLKSFTAVCQKDGSWDRPMPACSIVDCGPPDDLPSGRVEYITGPGVTTYKAVIQYSCEETFYTMKVNDGKYVCEADGFWTSSKGEKSLPVCEPVCGLSARTTGGRIYGGQKAKPGDFPWQVLILGGTTAAGALLYDNWVLTAAHAVYEQKHDASALDIRMGTLKRLSPHYTQAWSEAVFIHEGYTHDAGFDNDIALIKLNNKVVINSNITPICLPRKEAESFMRTDDIGTASGWGLTQRGFLARNLMYVDIPIVDHQKCTAAYEKPPYPRGSVTANMLCAGLESGGKDSCRGDSGGALVFLDSETERWFVGGIVSWGSMNCGEAGQYGVYTKVINYIPWIENIISDF
